In the nanobody polyreactivity screen of Harvey et al. (2022):

Assay: yeast display, Sf9 membrane polyspecificity reagent, FACS + sequencing; frameworks hold sequencing errors
In short: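 Synthetic nanobody libraries on Saccharomyces cerevisiae BJ5465 were galactose-induced for 36–48 hours, stained 1 hour at 4 °C with 10% biotinylated, detergent-solubilized Sf9 membrane reagent and enriched on streptavidin microbeads. FACS then separated cells into low and high (top ~1%) gates by anti-HA (expression) and streptavidin (reagent binding) fluorescence. Genes were colony-PCR amplified, MiSeq 2 × 250 sequenced and CDR-length filtered. A clone's polyreactivity label is that of its gate of origin.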

| Sequence | polyreactivity (PSR sort gate) |
| --- | --- |
| QVQLVESGGGLVQAGGSLRLSCAASGSTFRVYAMGCYRQAPGKERELVAAISGSGGSTYYADSVKGRFTISRDNAKNTVYLQMNSLKPEDTAVYYCAARSWYTEYYWGQGTQVTVSS | high polyreactivity |
| QVQLVESGGGLVQAGGSLRLSCAASGRTFRPYAMGWYIQAPGKERELVAAIDSSGTSTYYADSVKGRFTISRDNAKNTVYLQMNSLKPEDTAVYYCAKAWPDHWYSRYDYWGQGTQVTVSS | low polyreactivity |
| QVQLVESGGGLVQAGGSLRLSWAASGSSFGYAMGWYRQGPGKERELVAAISFSGVSTYYADSVKGRFTISRDNAKHTVYLQMNSLKPEDTAVYYCNAYSDGDEDYWGQGTQVTVSS | low polyreactivity |
| QVQLVESGGGLVQAGGSLRLSCAASGFTFDAYTMGWYRQAPGKERELVAAINWSGDTTYYADSVKGRFTISRDNAKNTVYLQMNSLKPEDTAVYYCAAVWWIYGVWFDYWGQGTQVTVSS | high polyreactivity |
| QVQLVESGGGLVQAGGSLRLSCAASGRIFGPNAMGWYRQAPGKERELVAAISTSGGRTYYADSVKGRFTISRDNAKNTVYLQMNSLKPEDTAVYYCAADRSRWGQGTQVTVSS | high polyreactivity |
| QVQLVESGGGLVQAGGSLRLSCAASRMGWYRQAPGKERELVARISGGVSTNYADSVRGRFTISRDNAKNTVYLQMNSVKPEDTAVYYCAADPLDTYDYWGQGTQATVSS | low polyreactivity |
| QVQLVESGGGLVQAGGSLRLSSAASGSTSFQNAMGWYRQATGKEREFVAAISGSGDRTNYADSVKGRFTISRDNAMYTVYVQMNSLKPEDTAVYYCAAVRGYPPSNYYYWGQGTQVTVSS | high polyreactivity |
| QVQLVESGGGIVQAGGSLRLSCAASGFIFLPYAMGWYRQAPGKERELVARISRSGASTYYADSVKGRFTISRDNAKNTVYLQMNSLKPEDTAVYYCNAVTSWPRRDFDYWGQGTQVTVSS | high polyreactivity |
| QVQLVESGGGLVQAGGSLRLSCAASGRIFKYYAMGWYRQAPGKERELVAAISASGGSTYYADSVKGRFTISRDNAKNTVYLQMNSLKPEDTAVYYCAAATRRKRIWTATTRSEYWGQGTQVTVSS | high polyreactivity |
| QVQLVESGGGLVQAGGSLRLSFAASGFIFPYYAMGWYRQAPGKERELVAAITSSGGSTYYADSVKGRFTISRDNAKNTVYLQMNSLKPEDTAVYYCNAYGRRTREYDYWGQGTQVTVSS | high polyreactivity |
| HVQLVESGGGLVQAGGSLRLSCAASGSIFWRYAMGWYRQAPGKERELVAAITWSGGTSYADSVKGRFTISRDNAKNTVYLQMNSLKPEDTAVYYCNADGLSYYLYDYWGQGTQVTVSS | low polyreactivity |
| QVQLVESGGGLVQAGGSLRLSCAASRTIIASYAMGSYRQAPGKERELVAAISRSGGRTYYADSVKGRFTISRDNAQNTVYLQMNSLKPEDSAVYYCNVLQPQSSDWLITYDYWGQGTQVTVSS | high polyreactivity |
| QVQLVESGGGLVQAGGSLRLSCAASGRIFSRNAMGWYRQAPGKDRELVAAISRSGTSTYYADSGKGRFTISRDNAKNTVYLQMNSLKPEDTAVYYCAADSWSRSVNYYYWGQGTQVTVSS | low polyreactivity |
| QVQLVETAGGLVQAGASLRLSSAASGITFAYYAMGWYRQAPAKERELVAAISSSGGSTYYADSVKGRFTISRDNAKNTVYLQLNSLNPEDTAVYYCAVDYSYWVEYWGLGTQVTVSS | high polyreactivity |
| QVQLVESGGGLVQAGGSLRLSCAASGGIFSYNAMGWSRQAPGKEREWVASITGSGGSTYYADSVKGRFTISRGNAKNTVYLQMNSLKPEDTAVYYCAAQGYWTYWPYLLRLYDYWGQGTQVTVSS | low polyreactivity |
| QVQLVESGGGLVQAGGSLRLSCAASGFIFNRYAMGWYRQAPGKERELVADITGGSTYYADSVKGLFTISRDNAKNTVFLQMNSLKPEDTAVYYCAADVLRISTLLFRGPGFDSWGQGTQVTVSS | low polyreactivity |
| QVQLVESVGGLVQAGGSLRLSCAASGSIFEWSAMGWYRQAPGKERELVADISSVGSTYYADSVKGRFTISRDNAKNTVYLQMNSLKPEDTAVYYCAADGTWVRSPHFYYWGQGTQVTVSS | low polyreactivity |
